In this test the target is recombinant RIIα subunit of PKA, fluorescein 5-maleimide-labelled (UniProt P13861). Briefly: other fluorescence titration.
Sequence of recombinant RIIα subunit of PKA, fluorescein 5-maleimide-labelled (P13861 2-404): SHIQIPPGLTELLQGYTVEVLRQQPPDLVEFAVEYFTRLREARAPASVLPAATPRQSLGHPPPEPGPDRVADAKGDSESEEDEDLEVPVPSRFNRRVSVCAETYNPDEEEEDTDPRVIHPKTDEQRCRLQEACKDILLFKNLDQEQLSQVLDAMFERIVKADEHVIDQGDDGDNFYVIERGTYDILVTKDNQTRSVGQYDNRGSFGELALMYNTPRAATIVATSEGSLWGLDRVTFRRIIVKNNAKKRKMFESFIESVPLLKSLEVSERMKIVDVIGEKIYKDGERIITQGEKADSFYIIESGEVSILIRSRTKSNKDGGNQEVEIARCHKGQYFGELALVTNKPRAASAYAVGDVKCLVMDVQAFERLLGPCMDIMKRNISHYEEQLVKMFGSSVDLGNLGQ

In the case of “PI3Kγ mimetic peptide (PI3Kγ MP) (from UniProt P48736 126-150)”, the Kd stood at 7.5 µM.

In general, Kd refers to the equilibrium constant for the complex coming apart.
